Results taken from PMC3864119 (Journal of proteome research, 2013).

Target: FLAG-tagged human GABAC-ρ1 subunit V353D (human, UniProt P24046 22-479, V353D)
Test: co-IP

B1: Calnexin (natural protein, human (endogenous in HEK293), UniProt P27824 21-592, looked up)
chain: HDGHDDDVIDIEDDLDDVIEEVEDSKPDTTAPPSSPKVTYKAPVPTGEVYFADSFDRGTLSGWILSKAKKDDTDDEIAKYDGKWEVEEMKESKLPGDKGLVLMSRAKHHAISAKLNKPFLFDTKPLIVQYEVNFQNGIECGGAYVKLLSKTPELNLDQFHDKTPYTIMFGPDKCGEDYKLHFIFRHKNPKTGIYEEKHAKRPDADLKTYFTDKKTHLYTLILNPDNSFEILVDQSVVNSGNLLNDMTPPVNPSREIEDPEDRKPEDWDERPKIPDPEAVKPDDWDEDAPAKIPDEEATKPEGWLDDEPEYVPDPDAEKPEDWDEDMDGEWEAPQIANPRCESAPGCGVWQRPVIDNPNYKGKWKPPMIDNPSYQGIWKPRKIPNPDFFEDLEPFRMTPFSAIGLELWSMTSDIFFDNFIICADRRIVDDWANDGWGLKKAADGAAEPGVVGQMIEAAEERPWLWVVYILTVALPVFLVILFCCSGKKQTSGMEYKKTDAPQPDVKEEEEEKEEEKDKGDEEEEGEEKLEEKQKSDAEEDGGTVSQEEEDRKPKAEEDEILNRSPRNRKPRRE
For B1, the “fold change of the ratio of immunoprecipitated calnexin/ρ1 against WT” value was 1.8 fold.
